Results on two molecules are retold here after patent publication US20240384250A1, “FIBROBLAST GROWTH FACTOR 23 MODULATING COMPOUNDS” (THE UAB RESEARCH FOUNDATION, priority 2021, published 2024).

Entries after “also recorded” stand apart in the source; their conditions may differ.

Test [1] in a line: Serum phosphate and intact FGF23 after sKL injection in rats. Format: in vivo, rat. Particulars: sKL 100 μg/kg tail vein. The method, then:
To determine the half-life of recombinant sKL protein in the circulation, rats were injected with the Strep-tagged mouse sKL that was purified as described above. Each group consisted of 3 male Sprague Dawley rats (9 weeks of age and weighing approximately 300 g). For injections and bleeding, rats were anesthetized with 2.5% isoflurane. For injections, a shielded i.v. catheter (BD Insyte Autoguard 0.7×19 mm, catalog no. 381412) was inserted into the lateral tail vein and flushed with 100 μl of isotonic saline (0.9%). One milliliter of purified sKL protein dissolved in isotonic saline (100 μg/kg) or isotonic saline was then injected, and the catheter was flushed again with 100 μl of isotonic saline. For bleeding, a shielded i.v. catheter was inserted into the lateral tail vein. Blood samples (300 μl) were taken after 1, 3, 5, 10, 15, 30, and 60 minutes as well as 3, 6, 12, and 48 hours. For collections from 15 minutes to 48 hours postinjection, a separate i.v. catheter was inserted each time to draw blood. […] Reactions were stopped with ELISA stop solution (E115, Bethyl Laboratories) and analyzed using the Synergy HI plate reader (BioTek) at 450 nm wavelength. Amounts of sKL were calculated by taking the slope of the standard curve and calculating where the sample points fit in.

The subject of the next test is male BALB/c mice. The test is described as follows: Serial FGF23 and heparin injections in mice, echocardiography and heart weight. Format: in vivo, mouse. Particulars: heparin 125 USP/kg and/or FGF23 40 μg/kg. The method, then: FGF23 injections were administered following a similar protocol established previously. 13,72,73 Briefly, 12-week-old male BALB/c mice (The Jackson Laboratory) underwent tail vein injections. The day before the experiment, mice underwent echocardiographic analysis, as described below. Mice were anesthetized in 2.5% isoflurane and placed on a heat pad. Each group consisted of 5 mice, and different groups were injected with isotonic saline, heparin, FGF23, or FGF23 and heparin combined. Per injection, 40 μg/kg of FGF23 and 125, 62.5, or 12.5 USP/kg of heparin dissolved in 200 μl of isotonic saline were used, with 8 hours were used between injections for a total of 5 consecutive days. All injections were performed via the lateral tail vein. On the morning of the sixth day, 16 hours after the final tail vein injection, animals underwent echocardiographic analysis and were killed. Middle sections of hearts were cut along the short axis and stored overnight in 4% phosphate-buffered formaldehyde solution. Sections were sent to IDEXX Laboratories for embedding, hematoxylin and eosin (H&E) staining, and sectioning. Sections for wheat germ agglutinin (WGA) labeling were not stained by IDEXX Laboratories.
Echocardiographic analysis was performed on day 6 of the experiment for FGF23-injected mice by using the Vevo 770 or Vevo 3100 imaging system (FUJIFILM VisualSonics). Animals were anesthetized with 1.5% isoflurane, and normal body temperature was maintained using a rectal probe for temperature monitoring. For analysis, both B- and M-mode images were obtained in the short- and long-axis views. Correct positioning of the transducer was ensured using B-mode imaging in the long-axis view before switching to the short-axis view. Image analysis was performed using Vevo 770 Workstation and Vevo LAB software (FUJIFILM VisualSonics).

B1: sKL: recombinant soluble α-klotho ectodomain, mouse aa 35-982 and human aa 34-981, FLAG- or Strep/His-tagged, purified from HEK293 cells (protein)
chain: EPGDGAQTWARFSRPPAPEAAGLFQGTFPDGFLWAVGSAAYQTEGGWQQHGKGASIWDTFTHHPLAPPGDSRNASLPLGAPSPLQPATGDVASDSYNNVFRDTEALRELGVTHYRFSISWARVLPNGSAGVPNREGLRYYRRLLERLRELGVQPVVTLYHWDLPQRLQDAYGGWANRALADHFRDYAELCFRHFGGQVKYWITIDNPYVVAWHGYATGRLAPGIRGSPRLGYLVAHNLLLAHAKVWHLYNTSFRPTQGGQVSIALSSHWINPRRMTDHSIKECQKSLDFVLGWFAKPVFIDGDYPESMKNNLSSILPDFTESEKKFIKGTADFFALCFGPTLSFQLLDPHMKFRQLESPNLRQLLSWIDLEFNHPQIFIVENGWFVSGTTKRDDAKYMYYLKKFIMETLKAIKLDGVDVIGYTAWSLMDGFEWHRGYSIRRGLFYVDFLSQDKMLLPKSSALFYQKLIEKNGFPPLPENQPLEGTFPCDFAWGVVDNYIQVDTTLSQFTDLNVYLWDVHHSKRLIKVDGVVTKKRKSYCVDFAAIQPQIALLQEMHVTHFRFSLDWALILPLGNQSQVNHTILQYYRCMASELVRVNITPVVALWQPMAPNQGLPRLLARQGAWENPYTALAFAEYARLCFQELGHHVKLWITMNEPYTRNMTYSAGHNLLKAHALAWHVYNEKFRHAQNGKISIALQADWIEPACPFSQKDKEVAERVLEFDIGWLAEPIFGSGDYPWVMRDWLNQRNNFLLPYFTEDEKKLIQGTFDFLALSHYTTILVDSEKEDPIKYNDYLEVQEMTDITWLNSPSQVAVVPWGLRKVLNWLKFKYGDLPMYIISNGIDDGLHAEDDQLRVYYMQNYINEALKAHILDGINLCGYFAYSFNDRTAPRFGLYRYAADQFEPKASMKHYRKIIDSNGFPGPETLERFCPEEFTVCTECSFFHTRKS
modifications: left off: small tags and cut ends
notes: recombinant soluble α-klotho ectodomain, mouse aa 35-982 and human aa 34-981, FLAG- or Strep/His-tagged, purified from HEK293 cells
On to B1, for which the serum phosphate levels entry in test [1] (serial bleeds) was “not significantly altered”. In test [1] (serial bleeds incl. 48 hours), the “serum intact FGF23 levels” value is on record as “increases in serum concentrations of FGF23; also recorded: significantly elevated”.

B2: FGF23: recombinant fibroblast growth factor 23 protein from R&D Systems (protein)
chain: YPDTSPLLGSNWGSLTHLYTATARTSYHLQIHRDGHVDGTPHQTIYSALMITSEDAGSVVITGAMTRRFLCMDLHGNIFGSLHFSPENCKFRQWTLENGYDVYLSQKHHYLVSLGRAKRIFQPGTNPPPFSQFLARRNEVPLLHFYTVRPRRHTRSAEDPPERDPLNVLKPRPRATPVPVSCSRELPSAEEGGPAASDPLGVLRRGRGDARGGAGGADRCRPFPRFV
Regarding B2, in the test with male BALB/c mice, the “Endocardial % EF” value was determined as 61.57 ± 3.48%, the “Endocardial % FAC” value worked out at 51.38 ± 2.02%, the Endocardial Area; s amounted to 4.88 ± 0.34 mm² and the “Endocardial major; d” value is 7.94 ± 0.09 mm. Also, in the test on male BALB/c mice, the Epicardial Area: s amounted to 19.4 ± 0.46 mm², the Epicardial Area; d is 23.1 ± 0.45 mm², the Heart rate is 452.70 ± 4.48 BPM and the “LV Mass; d” value turned out to be 122.10 ± 3.05 mg. Besides, the “T; d” value in the test on male BALB/c mice came out at 0.94 ± 0.02 mm. For the same molecule, the Endocardial Area; d in the test on male BALB/c mice (i.v. 2 times per day for 5 days, mean ± SEM) came out at 9.93 ± 0.39 mm².
